Data published in patent US20150086592A1, “COMPOSITIONS OF VACCINES AND ADJUVANTS AND METHODS FOR THE TREATMENT OF URINARY TRACT INFECTIONS” (Sequoia Sciences, Inc, priority 2013, published 2015).
Several values for one entry are separate records, joined by “and”; a condition that tells them apart may be missing. Equal entries are not always repeated.

Legend:
FimH [1] = target: FimH (Escherichia coli, UniProt P08191); experiment: biochemical; settings: concentration at which 50% inhibition of HRP binding to FimH is observed, inhibitor added in the HRP binding step
Chain of FimH (Escherichia coli, UniProt P08191) (P08191 22-300 P197R/T222H, one chain of several): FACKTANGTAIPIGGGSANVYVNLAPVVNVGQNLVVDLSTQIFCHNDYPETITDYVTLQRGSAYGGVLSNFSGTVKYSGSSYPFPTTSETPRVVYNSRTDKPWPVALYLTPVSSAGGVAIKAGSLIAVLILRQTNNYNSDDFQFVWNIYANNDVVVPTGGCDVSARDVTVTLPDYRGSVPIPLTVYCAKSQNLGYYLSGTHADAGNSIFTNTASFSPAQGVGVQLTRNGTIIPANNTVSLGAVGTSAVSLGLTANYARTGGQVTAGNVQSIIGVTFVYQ
Procedure: (§1) The biological activity of the FimCH drug substance (for example, from Example 3) is determined by an in vitro mannose binding assay. The FimH protein is a bacterial adhesin utilized by E. coli to bind mannose residues on glycosylated proteins. During urinary tract infections, the FimH adhesin binds mannosylated uroplakin proteins on bladder epithelial cells, which promotes the internalization of bound E. coli. The binding of FimH to mannosylated uroplakin is essential for E. coli to cause urinary tract infections. To monitor the mannose-binding activity of FimH in vitro, FimH binding to the enzyme horseradish peroxidase (HRP) is observed. HRP is a glycosylated protein containing mannose residues, and has previously been used to study mammalian mannose-binding receptors. Complexes of HRP and the lectin ConA, which binds α-D-mannosyl and α-D-glucosyl groups, have also been generated and studied.
(§2) HRP is then added, excess HRP is rinsed away, and the activity of bound HRP is detected.

FimH [2] = target: FimH (Escherichia coli, UniProt P08191, P197R/T222H); experiment: biochemical
Chain of FimH (Escherichia coli, UniProt P08191, P197R/T222H) (P08191 22-300 P197R/T222H, one chain of several): as above
Procedure: as §1, §2

[3] = Storage stability of FimCH; type: physicochemical; settings: stored at −20° C., 0.3 mg/mL in 20 mM MES pH 5.9 or 20 mM trisodium citrate, pH 5.4
Procedure: For the HIC column used Butyl Sepharose 4FF (GE Healthcare 17-0980-01) in XK26 column. Buffer C: 20 mM MES/550 mM Ammonium Sulfate, pH 5.9; 8 ml/min for XK26/10 except loading, pre-equilibrate the column with 3 CV of Buffer A (as above), equilibrate the column with 6 CV of Buffer C, load Pooled FimCH sample at 5 ml/min XK26/10 column, wash the column with 6 CV of Buffer C, elute the column with a linear 4 CV gradient from 0-100% Buffer A with fraction collection. FimCH is formulated in the concentration of 0.3 mg/mL in 20 mM MES pH 5.9 or 20 mM trisodium citrate, pH 5.4. It is then aseptically filtered through a 0.2 μm sterile filter. FimCH is stable and can be stored at −20° C. for about at least 2 years.

[4] = target: T1, horseradish peroxidase (HRP) (UniProt P00433 31-338); experiment: in vitro potency assay; inferred from the lack of HRP signal with the Q133K FimH-FimC complex
T1 sequence: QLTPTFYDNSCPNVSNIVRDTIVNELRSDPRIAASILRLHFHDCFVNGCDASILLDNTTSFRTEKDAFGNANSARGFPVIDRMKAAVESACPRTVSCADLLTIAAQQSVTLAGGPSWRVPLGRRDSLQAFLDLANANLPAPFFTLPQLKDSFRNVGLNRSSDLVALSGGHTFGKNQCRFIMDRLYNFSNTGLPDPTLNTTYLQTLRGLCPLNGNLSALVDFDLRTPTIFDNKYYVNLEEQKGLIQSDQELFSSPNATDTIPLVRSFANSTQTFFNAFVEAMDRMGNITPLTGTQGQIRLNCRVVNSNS

## CO[C@H]1O[C@H](CO)[C@@H](O)[C@H](O)[C@@H]1O [MDMP, methyl-α-D-mannopyranoside]
FimH [1]
  IC50: ~5.15 µM and ~5.1 µM
FimH [2]; MDMP versus UFMP
  fold higher 50% inhibition concentration than UFMP: approximately 100 fold

## FimCH: non-covalent complex of FimC and FimH recombinant proteins, approximately 51,700 Daltons
FimH [2]; captured by anti-FimH antisera on ELISA plate
  HRP binding (mannose-binding activity): dose-dependent
[3]
  time stable on storage: at least 2 years

B1: FimC (other)
chain: GVALGATRVIYPAGQKQVQLAVTNNDENSTYLIQSWVENADGVKDGRFIVTPPLFAMKGKKENTLRILDATNNQLPQDRESLFWMNVKAIPSMDKSKLTENTLQLAIISRIKLYYRPAKLALPPDQAAEKLRFRRSANSLTLINPTPYYLTVTELNAGTRVLENALVPPMGESAVKLPSDAGSNITYRTINDYGALTPKMTGVME
notes: also called FimC protein
[4]
  binding result: no binding
